For 22 molecules, Kd results are on record in patent US20210047402A1 (published 2021).

Numbering of substitutions follows the chain as printed.

B1: anti-CD22 heavy chain-only antibody Clone ID 335293 (antibody, V domains shown)
VH: QLQLQESGPGLVKPSETLSLTCTVSGDSISSGDYYWGWIRQPPGKGLEWIGHIYYSGATYYNPSLKNRVTISVDTSRNQFSLKLSSVTAADTAVYYCTREDSSSWRSRGQGTLVTVSS
B2: anti-CD22 heavy chain-only antibody Clone ID 335271 (antibody, V domains shown)
VH: B1 VH with Q41H, R77K
B3: anti-CD22 heavy chain-only antibody Clone ID 335170 (antibody, V domains shown)
VH: B1 VH with E100D, S104N
B4: anti-CD22 heavy chain-only antibody Clone ID 335307 (antibody, V domains shown)
VH: B1 VH with H52S, A58S, N67S, R77K
B5: anti-CD22 heavy chain-only antibody Clone ID 335158 (antibody, V domains shown)
VH: B1 VH with D27G, E100D, S104N
B6: anti-CD22 heavy chain-only antibody Clone ID 335182 (antibody, V domains shown)
VH: B1 VH with H52N, R77K, E100D, S104N
B7: anti-CD22 heavy chain-only antibody Clone ID 335181 (antibody, V domains shown)
VH: B1 VH with D33G, R77K, E100D, S104N
B8: anti-CD22 heavy chain-only antibody Clone ID 335301 (antibody, V domains shown)
VH: B1 VH with H52N, R77K
B9: anti-CD22 heavy chain-only antibody Clone ID 335254 (antibody, V domains shown)
VH: B1 VH with A58V, R77K
B10: anti-CD22 heavy chain-only antibody Clone ID 324508 (antibody, V domains shown)
VH: B1 VH with D27G, K66E, R77K, E100D, S104N
B11: anti-CD22 heavy chain-only antibody Clone ID 335218 (antibody, V domains shown)
VH: B1 VH with S104N
B12: anti-CD22 heavy chain-only antibody Clone ID 335206 (antibody, V domains shown)
VH: B1 VH with R77K, S104N
B13: anti-CD22 heavy chain-only antibody Clone ID 335245 (antibody, V domains shown)
VH: B1 VH with R77K
B14: anti-CD22 heavy chain-only antibody Clone ID 335185 (antibody, V domains shown)
VH: B1 VH with K83N, S104N
B15: anti-CD22 heavy chain-only antibody Clone ID 335244 (antibody, V domains shown)
VH: B1 VH with K83N
B16: anti-CD22 heavy chain-only antibody Clone ID 335162 (antibody, V domains shown)
VH: QLQLQESGPGLVKPSETLSLTCTVSGGSIISSSYYWGWIRQPPGKGLEWIGSIYYSGSAYYHPSLKSRVTISIDTSKNQFSLKLSSVTAADTAVYYCARDDSSNWRSRGQGTLVTVSS
B17: anti-CD22 heavy chain-only antibody Clone ID 335285 (antibody, V domains shown)
VH: B1 VH with D27G, G32S, D33S, H52S, A58V, R77K
B18: anti-CD22 heavy chain-only antibody Clone ID 335187 (antibody, V domains shown)
VH: B1 VH with D27G, G32S, D33S, R77K, E100D, S104N
B19: anti-CD22 heavy chain-only antibody Clone ID 335150 (antibody, V domains shown)
VH: B1 VH with P42S, G44E, A58V, R77K, T98K, E100D, S104N
B20: anti-CD22 heavy chain-only antibody Clone ID 335274 (antibody, V domains shown)
VH: B1 VH with D27G, G32S, D33S, H52S, A58S, N67S, K83N
B21: anti-CD22 heavy chain-only antibody Clone ID 335159 (antibody, V domains shown)
VH: B1 VH with D27G, G32S, D33S, A58V, R77K, V94A, E100D, S104N
B22: anti-CD22 heavy chain-only antibody Clone ID 335316 (antibody, V domains shown)
VH: B1 VH with D27G, G32S, D33S, R77K

In general, Kd refers to the equilibrium constant for the complex coming apart. A low value points to a tighter complex.

T1 sequence (P20273 20-687): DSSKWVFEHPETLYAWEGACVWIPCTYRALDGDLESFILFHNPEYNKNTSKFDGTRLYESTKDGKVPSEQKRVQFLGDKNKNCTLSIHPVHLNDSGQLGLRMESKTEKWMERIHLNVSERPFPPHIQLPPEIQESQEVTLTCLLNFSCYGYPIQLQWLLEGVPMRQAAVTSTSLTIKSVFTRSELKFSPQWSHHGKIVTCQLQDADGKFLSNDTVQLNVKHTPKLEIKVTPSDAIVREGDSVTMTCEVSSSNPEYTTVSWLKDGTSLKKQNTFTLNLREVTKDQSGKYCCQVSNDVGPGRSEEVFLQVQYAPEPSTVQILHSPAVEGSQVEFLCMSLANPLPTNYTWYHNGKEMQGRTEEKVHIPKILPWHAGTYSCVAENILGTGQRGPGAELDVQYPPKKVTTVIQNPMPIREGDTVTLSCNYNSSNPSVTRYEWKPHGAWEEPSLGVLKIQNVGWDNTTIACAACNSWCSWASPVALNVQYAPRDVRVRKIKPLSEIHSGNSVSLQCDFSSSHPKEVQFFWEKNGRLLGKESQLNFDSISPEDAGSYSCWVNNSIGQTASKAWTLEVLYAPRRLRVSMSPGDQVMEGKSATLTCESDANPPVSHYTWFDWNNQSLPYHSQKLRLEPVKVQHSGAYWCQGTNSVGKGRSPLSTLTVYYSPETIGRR

In one assay the target is T1, human CD22 (human, UniProt P20273 20-687). The assay is described as follows: BLI. In short, it runs like this:
(§1)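 Heavy chain-only antibodies were loaded at 5 μg/mL for 120 seconds onto anti-human IgG Fc capture biosensors on an Octet QK-384, using 1×PBS, 0.1% BSA, 0.02% Tween-20, pH 7.2 buffer. Human CD22 protein was applied in a 7-point 1:2 dilution series beginning at 250 nM, alongside a buffer-only reference well, and the data were fit to a 1:1 binding model in Octet Data Analysis v9.0. Kd, the affinity measure from this biolayer interferometry assay, was obtained as koff/kon.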
Background: Biolayer interferometry detects binding as a change in optical thickness at a sensor tip.
B1 showed a dissociation constant (Kd) of 7.41 nM.
B2: the equilibrium dissociation constant (Kd) came to 21.6 nM.
On the same count and under the same terms, with B3 the figure was 6.5 nM.
For the molecule B4, the affinity, expressed as Kd, was 10.3 nM.
For B5, the Kd is 42.3 nM.
Turning to B6, the affinity, expressed as Kd, was 22.4 nM.
Regarding B7, the Kd was found to be 9.44 nM.
The same measure, in the same setting: next, B8: 12.6 nM; B9: 2.83 nM.
For B10, the dissociation constant (Kd) was determined as 12.5 nM.
As for B11, the affinity, expressed as Kd, was 8.91 nM.
B12 gave a dissociation constant (Kd) of 7.53 nM.
The molecule B13 came in with a dissociation constant Kd of 7.44 nM.
Regarding B14, binding was characterised by a dissociation constant (Kd) of 8.43 nM.
On to B15, for which binding was characterised by a dissociation constant (Kd) of 5.07 nM.

The target of the next assay is T1, human CD22. The assay is described as follows: BLI. This is another data set of the same source. The procedure, abridged: as §1
Consider B16, for which the affinity, expressed as Kd, was 99.6 nM.
The molecule B17 showed a Kd of 114 nM.
For the molecule B18, binding was characterised by a dissociation constant (Kd) of 128 nM.
Molecule B19 registered a Kd of 14.1 nM.
Regarding B20, the affinity, expressed as Kd, was 23.6 nM.
Same read-out and setting: next, B21: 16.1 nM.
As to B22, binding was put at a Kd of 23.5 nM.
